The record followed here is publication PMC9935904.

This assay addresses Lathyrus sativus β-L-ODAP synthase (LsBOS), N-terminal His-tag (Lathyrus sativus). Nature of the assay: SPR; Biacore 8K, CM5 chip; LsBOS amine-coupled (~1700 response), LsAAE3 as analyte; single cycle kinetics at 2.4, 12, 60, 300 and 1500 nM; 10 mM Hepes pH 7.4, 150 mM NaCl, 0.05 % tween 20, 25 °C; simple Langmuir binding model.

Take “Lathyrus sativus acyl-activating enzyme 3 (LsAAE3), N-terminal His-tag”: the equilibrium dissociation constant (Kd) was determined as 98 nM, the koff was 0.000361 s⁻¹, the kon was determined as 3670 M⁻¹ s⁻¹ and the stoichiometry N is 1.
